These results are taken from patent US20250297004A1, “NECTIN-4 BINDING AGENTS” (INNATE PHARMA, priority 2022, published 2025).

Where a chain is given by its changes, count along the chain named.

Experiment [1] concerns SUM190 cells subcutaneously engrafted in CB17-SCID mice. Description: In vivo efficacy of ggfg-Dxd ADCs, Nectin-4 low/SUM190 mouse model of human breast cancer. The note with it: single i.v. injection 3 mg/kg; each antibody conjugated to ggfg-Dxd, DAR=8; FIG. 4. The protocol: SUM190 cells were subcutaneously engrafted in CB17-SCID immunodeficient mice at a dose of 0.5 million cells in 100 μl of Matrigel with growth factor diluted at ½ in PBS. When tumors reached a volume between 195 and 250 mm3, mice were randomized into groups of 9 mice for intravenous treatment with a single injection of 3 mg/kg of camptothecin ADCs. Tumor growths were followed twice a week. Kaplan Meier survival curves were established by using GraphPad Prism V7 software according to the following criteria: When the tumor volume reached 1500 mm3, mice were euthanized and considered dead on the day of sacrifice (D).

For experiment [2], the target named is human Nectin-4 (protein used in the SPR affinity measurements) (human) (UniProt Q96NY8). Description: SPR, human IgG1. On the technique in general: In SPR one partner is held on a chip, and binding of the other changes the refractive index at the surface.
Experiment [3] concerns the target T1, human Nectin-4 expressed on cells (human, UniProt Q96NY8 32-510).
T1 sequence: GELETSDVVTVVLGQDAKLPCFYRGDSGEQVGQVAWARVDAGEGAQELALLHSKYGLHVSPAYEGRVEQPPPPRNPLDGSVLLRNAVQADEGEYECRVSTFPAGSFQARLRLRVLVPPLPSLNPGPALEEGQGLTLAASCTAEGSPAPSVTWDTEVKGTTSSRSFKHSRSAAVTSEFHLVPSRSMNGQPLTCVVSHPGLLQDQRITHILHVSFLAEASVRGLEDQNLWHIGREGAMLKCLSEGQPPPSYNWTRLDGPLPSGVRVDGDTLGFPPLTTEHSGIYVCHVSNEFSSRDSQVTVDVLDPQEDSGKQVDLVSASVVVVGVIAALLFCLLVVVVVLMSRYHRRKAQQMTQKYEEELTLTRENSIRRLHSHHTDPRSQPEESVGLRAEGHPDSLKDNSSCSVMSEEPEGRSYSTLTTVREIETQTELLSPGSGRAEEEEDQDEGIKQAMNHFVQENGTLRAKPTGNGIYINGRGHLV
Kind of experiment: cell-based or functional assay.

The target of experiment [4] is T1, human Nectin-4 expressed on cells. Kind of experiment: cell-based or functional assay. The source holds these as a separate data set.
Experiment [5] addresses T2, human Nectin-4 (Homo sapiens, UniProt Q96NY8).
T2 sequence (Q96NY8 32-510): T1 sequence
Description: Binding to human Nectin-4 by SPR. The following applies: second set (Table 7); for ka: SPR association constant; for kd: SPR dissociation constant; for Kd: SPR, human IgG1 isotype antibodies. The protocol:
The antibodies in Table 3 of Example 3 were cloned as human IgG1 isotype antibodies, produced and purified, then tested for binding to human Nectin-4. Affinity of the 16 humanized variants, as well as their association and dissociation constants were assessed by SPR analysis. Table 4 summarizes all the calculated constants (Affinity constant KD (nM), association constant ka (1/Ms) and dissociation constant kd (1/s)).
The antibodies in Table 6 of Example 5 were cloned as human IgG1 isotype antibodies, produced and purified, then tested for binding to human Nectin-4. Affinity of the 16 humanized variants, as well as their association and dissociation constants were assessed by SPR analysis. Table 7 summarizes all the calculated constants (Affinity constant KD (nM), association constant ka (1/Ms) and dissociation constant kd (1/s)).

Experiment [6] deals with T1, human Nectin-4 expressed on cells. Description: flow cytometry on SUM190 cells, MedFI at saturation. The protocol: The humanized antibodies in Table 3 of Example 3 and in Table 6 of Example 5 were cloned, produced and purified, then tested for binding to Nectin-4 expressing cells by flow cytometry. Binding of humanized variants in human IgG1 format was determined on the SUM190 cell line expressing high levels of Nectin-4.
A general note: A flow cytometer gives signals particle by particle.

In the case of enfortumab [reference compound], the “control of tumor growth” value in experiment [1] is given as “no longer showed the ability to control tumor growth”.

B1: H7L1 (antibody, human IgG1, V domains shown)
VH: QVQLVQSGAEVKKPGASVKVSCKASGYIFTSYWMHWVKQRPGQGLEWIGEIDPSDSYTNYNQKFKGRVTLTLDKSTSTTYMELSSLRSEDTAVYYCARGYGNYGDYWGQGTLVTVSS
VL: DVVMTQSPLSLPVTPGEPASISCRSSKSLLHSNGITYLYWYLQKPGQSPQLLIYQMSNLASGVPDRFSSSGSGTDFTLKISRVEAEDVGVYYCAQNLELPWTFGGGTKVEIK
notes: human IgG1 isotype
Broadly, the Kd is the constant that tells how readily two partners part at equilibrium. Lower therefore signals a tighter complex. The koff is a measure of how fast the partners let go of each other. Usually kon stands for the second-order rate constant of association. A low value points to slow association. Regarding B1, in experiment [2], the Kd is 29.7 nM, the koff was found to be 0.006 s⁻¹ and the kon worked out at 200000 M⁻¹ s⁻¹. In experiment [3], the “internalization efficiency on MDA-MB-468, normalized to chimeric parental antibody (Fab-ZAP, CTG), first column” value is 79 % of chimeric parental and the “internalization efficiency on MDA-MB-468, normalized to chimeric parental antibody (Fab-ZAP, CTG), second column” value is 79 % of chimeric parental. Also, in experiment [4], the “internalization efficiency on SUM190, normalized to chimeric parental antibody (Fab-ZAP, CTG), experiment 1” value was 129 % of chimeric parental and the “internalization efficiency on SUM190, normalized to chimeric parental antibody (Fab-ZAP, CTG), experiment 2” value was 73.1 % of chimeric parental. Further, in experiment [5], the “ka” value was found to be 200000 M⁻¹ s⁻¹; the “kd” value came to 0.006 s⁻¹; the affinity, expressed as Kd, was 29.7 nM. Besides, the “Max MedFi” value in experiment [6] is 17800 MedFI.

B2: H7L3 (antibody, human IgG1, V domains shown)
VH: B1 VH
VL: B1 VL with P8A, L11N
notes: human IgG1 isotype
Turning to B2, in experiment [2], the Kd was 49 nM, the dissociation rate constant (koff) stood at 0.0055 s⁻¹ and the association rate constant (kon) turned out to be 110000 M⁻¹ s⁻¹. In experiment [3], the “internalization efficiency on MDA-MB-468, normalized to chimeric parental antibody (Fab-ZAP, CTG), first column” value was 51.8 % of chimeric parental and the “internalization efficiency on MDA-MB-468, normalized to chimeric parental antibody (Fab-ZAP, CTG), second column” value was 51.8 % of chimeric parental. Further, in experiment [4], the “internalization efficiency on SUM190, normalized to chimeric parental antibody (Fab-ZAP, CTG), experiment 1” value was 88.5 % of chimeric parental and the “internalization efficiency on SUM190, normalized to chimeric parental antibody (Fab-ZAP, CTG), experiment 2” value is 61.3 % of chimeric parental. In addition, in experiment [5], the “ka” value is 110000 M⁻¹ s⁻¹, the “kd” value is 0.0055 s⁻¹ and binding was characterised by a dissociation constant (Kd) of 49 nM. For the same molecule, in experiment [6], the “Max MedFi” value was 25000 MedFI.

B3: H8L1 (antibody, human IgG1, V domains shown)
VH: B1 VH with R40A, L70M
VL: B1 VL
notes: human IgG1 isotype
In experiment [2], B3 had a Kd of 19.2 nM, a dissociation rate constant (koff) of 0.0048 s⁻¹ and a kon of 250000 M⁻¹ s⁻¹. Besides, in experiment [3], the “internalization efficiency on MDA-MB-468, normalized to chimeric parental antibody (Fab-ZAP, CTG), first column” value was 71.2 % of chimeric parental and the “internalization efficiency on MDA-MB-468, normalized to chimeric parental antibody (Fab-ZAP, CTG), second column” value was 71.2 % of chimeric parental. In addition, in experiment [4], the “internalization efficiency on SUM190, normalized to chimeric parental antibody (Fab-ZAP, CTG), experiment 1” value was 132 % of chimeric parental and the “internalization efficiency on SUM190, normalized to chimeric parental antibody (Fab-ZAP, CTG), experiment 2” value is 65.2 % of chimeric parental. Moreover, in experiment [5], the “ka” value turned out to be 250000 M⁻¹ s⁻¹, the “kd” value stood at 0.0048 s⁻¹ and the equilibrium dissociation constant (Kd) came to 19.2 nM. The “Max MedFi” value in experiment [6] turned out to be 17300 MedFI.

B4: H7L2 (antibody, human IgG1, V domains shown)
VH: B1 VH
VL: B1 VL with L11N
notes: human IgG1 isotype
In experiment [2], B4 yielded a Kd of 39.5 nM, a koff of 0.0063 s⁻¹ and an on-rate constant (kon) of 160000 M⁻¹ s⁻¹. In experiment [3], the “internalization efficiency on MDA-MB-468, normalized to chimeric parental antibody (Fab-ZAP, CTG), first column” value is 58.7 % of chimeric parental and the “internalization efficiency on MDA-MB-468, normalized to chimeric parental antibody (Fab-ZAP, CTG), second column” value was 58.7 % of chimeric parental. For the same molecule, in experiment [4], the “internalization efficiency on SUM190, normalized to chimeric parental antibody (Fab-ZAP, CTG), experiment 1” value was 89.6 % of chimeric parental and the “internalization efficiency on SUM190, normalized to chimeric parental antibody (Fab-ZAP, CTG), experiment 2” value was 74.8 % of chimeric parental. In addition, in experiment [5], the “ka” value was 160000 M⁻¹ s⁻¹; the “kd” value amounted to 0.0063 s⁻¹; the affinity, expressed as Kd, was 39.5 nM. The “Max MedFi” value in experiment [6] is 23400 MedFI.
